Data published in the supplement of paper PMC10567573.

B1: SNAP91 (parent)
chain: FAAPSPATTASPAKVDSSGVIDLF

Variants of: B1
Test: protein stability index of a GFP-peptide fusion (GPS, HEK-293T) (PSI 1-6); higher = more stable
Conditions: c terminus: a fixed tail appended
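Note: lentivirally expressed fusions sorted by FACS into six bins by GFP to DsRed ratio, PSI derived from sequencing read proportions per bin multiplied by bin number.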

Row | Variant | protein stability index
1 | FAAPSPATTASPAKHDSSGVIDLF [V15H] | 2.32
2 | FAAPSPATTASPAKSDSSGVIDLF [V15S] | 2.93
3 | FAAPSPATTASPAKMDSSGVIDLF [V15M] | 2.56
4 | FAAPSPATTASPAKADSSGVIDLF [V15A] | 2.52
5 | FAAPSPATTASPAKEDSSGVIDLF [V15E] | 3.03
6 | FAAPSPATTASPAKYDSSGVIDLF [V15Y] | 1.98
7 | FAAPSPATTASPAKKDSSGVIDLF [V15K] | 2.92
8 | FAAPSPATTASPAKRDSSGVIDLF [V15R] | 2.6
9 | FAAPSPATTASPAKWDSSGVIDLF [V15W] | 2.1
10 | FAAPSPATTASHAKVDSSGVIDLF [P12H] | 2.27
11 | FAAPSPATTASWAKVDSSGVIDLF [P12W] | 2.04
12 | FAAPSPATTASDAKVDSSGVIDLF [P12D] | 2.6
13 | FAAPSPATTASRAKVDSSGVIDLF [P12R] | 2.2
14 | FAAPSPATTASAAKVDSSGVIDLF [P12A] | 2.19
15 | FAAPSPATTASFAKVDSSGVIDLF [P12F] | 1.8
16 | FAAPSPATTASGAKVDSSGVIDLF [P12G] | 1.92
17 | FAAPSPATTASLAKVDSSGVIDLF [P12L] | 2.49
18 | FAAPSPATTASYAKVDSSGVIDLF [P12Y] | 1.97
19 | FAAPSPATTASTAKVDSSGVIDLF [P12T] | 2.15
20 | FRAPSPATTASPAKVDSSGVIDLF [A2R] | 2.89
21 | FGAPSPATTASPAKVDSSGVIDLF [A2G] | 3.57
22 | FPAPSPATTASPAKVDSSGVIDLF [A2P] | 3.03
23 | FCAPSPATTASPAKVDSSGVIDLF [A2C] | 1.69
24 | FLAPSPATTASPAKVDSSGVIDLF [A2L] | 2.56

Row | Variant | protein stability index
25 | FEAPSPATTASPAKVDSSGVIDLF [A2E] | 4.29
26 | FYAPSPATTASPAKVDSSGVIDLF [A2Y] | 2.09
27 | FAAPSPATTASPAKVDSFGVIDLF [S18F] | 1.67
28 | FAAPSPATTASPAKVDSGGVIDLF [S18G] | 2.56
29 | FAAPSPATTASPAKVDSPGVIDLF [S18P] | 2.83
30 | FAAPSPATTASPAKVDSDGVIDLF [S18D] | 2.97
31 | FAAPSPATTASPAKVDSWGVIDLF [S18W] | 1.37
32 | FAAPSPATTASPAKVDSNGVIDLF [S18N] | 2.43
33 | FAAPSPATTASPAKVDSIGVIDLF [S18I] | 1.9
34 | FAAPSPATTASPANVDSSGVIDLF [K14N] | 2.52
35 | FAAPSPATTASPAFVDSSGVIDLF [K14F] | 1.86
36 | FAAPSPATTASPADVDSSGVIDLF [K14D] | 2.47
37 | FAAPSPATTASPARVDSSGVIDLF [K14R] | 2.28
38 | FAAPSPATTASPAGVDSSGVIDLF [K14G] | 2.05
39 | FAAPSPATTASPAVVDSSGVIDLF [K14V] | 2.77
40 | FAAPSPATTASPASVDSSGVIDLF [K14S] | 2.29
41 | FAAPSPATTASPAEVDSSGVIDLF [K14E] | 2.81
42 | FAAPSPATTASPAHVDSSGVIDLF [K14H] | 2.46
43 | FAAPSPATTASPAKVDDSGVIDLF [S17D] | 2.55
44 | FAAPSPATTASPAKVDVSGVIDLF [S17V] | 2.17
45 | FAAPSPATTASPAKVDRSGVIDLF [S17R] | 2.27
46 | FAAPSPATTASPAKVDISGVIDLF [S17I] | 1.7
47 | FAAPSPATTASPAKVDASGVIDLF [S17A] | 2.55
48 | FAAPSPATTASPAKVDFSGVIDLF [S17F] | 2.21

Row | Variant | protein stability index
49 | FAAPSPATTASPAKVDLSGVIDLF [S17L] | 1.96
50 | FAAPSPATTASPAKVDNSGVIDLF [S17N] | 2.78
51 | FAAPSPATTASPAKVDSSLVIDLF [G19L] | 2.24
52 | FAAPSPATTASPAKVDSSSVIDLF [G19S] | 2.58
53 | FAAPSPATTASPAKVDSSCVIDLF [G19C] | 1.83
54 | FAAPSPATTASPAKVDSSYVIDLF [G19Y] | 1.58
55 | FAAPSPATTASPAKVDSSPVIDLF [G19P] | 2.06
56 | FAAPSPATTASPAKVDSSQVIDLF [G19Q] | 2.69
57 | FAAPSPATTASPAKVDSSKVIDLF [G19K] | 2.38
58 | FAAPSPATTASPAKVDSSIVIDLF [G19I] | 1.41
59 | FAAPSPATTASPAKVDSSWVIDLF [G19W] | 1.55
60 | FAAPSQATTASPAKVDSSGVIDLF [P6Q] | 2.63
61 | FAAPSMATTASPAKVDSSGVIDLF [P6M] | 2.44
62 | FAAPSDATTASPAKVDSSGVIDLF [P6D] | 3.01
63 | FAAPSWATTASPAKVDSSGVIDLF [P6W] | 2.35
64 | FAAPSHATTASPAKVDSSGVIDLF [P6H] | 2.36
65 | FAAPSIATTASPAKVDSSGVIDLF [P6I] | 1.84
66 | FAAPSYATTASPAKVDSSGVIDLF [P6Y] | 1.7
67 | FAAPSPVTTASPAKVDSSGVIDLF [A7V] | 2.53
68 | FAAPSPSTTASPAKVDSSGVIDLF [A7S] | 2.49
69 | FAAPSPRTTASPAKVDSSGVIDLF [A7R] | 2.36
70 | FAAPSPCTTASPAKVDSSGVIDLF [A7C] | 1.75
71 | FAAPSPDTTASPAKVDSSGVIDLF [A7D] | 2.25
72 | FAAPSPKTTASPAKVDSSGVIDLF [A7K] | 2.65

Row | Variant | protein stability index
73 | FAAPSPFTTASPAKVDSSGVIDLF [A7F] | 2.65
74 | FAAPSPETTASPAKVDSSGVIDLF [A7E] | 3.06
75 | FAAPSPYTTASPAKVDSSGVIDLF [A7Y] | 2.54
76 | FAAPSPATNASPAKVDSSGVIDLF [T9N] | 2.58
77 | FAAPSPATIASPAKVDSSGVIDLF [T9I] | 2.16
78 | FAAPSPATEASPAKVDSSGVIDLF [T9E] | 2.77
79 | FAAPSPATCASPAKVDSSGVIDLF [T9C] | 2.43
80 | FAATSPATTASPAKVDSSGVIDLF [P4T] | 1.67
81 | FAARSPATTASPAKVDSSGVIDLF [P4R] | 2.12
82 | FAAESPATTASPAKVDSSGVIDLF [P4E] | 2.23
83 | FAAISPATTASPAKVDSSGVIDLF [P4I] | 1.77
84 | FAAWSPATTASPAKVDSSGVIDLF [P4W] | 1.76
85 | FAAASPATTASPAKVDSSGVIDLF [P4A] | 1.79
86 | FAAPMPATTASPAKVDSSGVIDLF [S5M] | 2.24
87 | FAAPRPATTASPAKVDSSGVIDLF [S5R] | 2.1
88 | FAAPCPATTASPAKVDSSGVIDLF [S5C] | 2.16
89 | FAAPNPATTASPAKVDSSGVIDLF [S5N] | 2.59
90 | FAAPDPATTASPAKVDSSGVIDLF [S5D] | 3
91 | FAAPHPATTASPAKVDSSGVIDLF [S5H] | 1.96
92 | FAAPKPATTASPAKVDSSGVIDLF [S5K] | 2.66
93 | FAAPSPATTASPAKVDSSGVIDYF [L23Y] | 3.2
94 | FAAPSPATTASPAKVDSSGVIDNF [L23N] | 4.14
